Consider four molecules from patent US10323078B2, “Isolated peptides and fragments thereof from fibrinogen for use as drugs, particularly in skin inflammatory diseases” (Universite Paris Descartes, priority 2015, dated 2019).

The test system of the assay is Pfg. As to the kind of experiment: Western ligand blot with biotinylated Pfg. The class given is binding, Propionibacterium acnes. As to conditions: biotinylated Pfg 0.1 μg/ml; for Recognition of GST-fused recombinant Bß fibrinogen fragments by biotinylated Pfg: E. coli total protein after IPTG induction, 12.5% SDS-PAGE; for Recognition by biotinylated Pfg after electrophoretic separation of fibrinogen: 10 μg per lane, 10% SDS-PAGE. The method, then: FIG. 5: Binding of P. acnes surface proteins to fibrinogen. (A) Various quantities of human fibrinogen (hFg) and bovine fibrinogen (bFg) were immobilized onto a 96-well polystyrene plate at 4° C. for 18 h and incubated with biotinylated Pfg at 0.1 μg/ml for 2 h at 23° C. Bovine serum albumin (BSA) was used as negative control. Bound material was detected by using the HRP-streptavidin conjugate. Peroxidase activity was measured by using the ABTS substrate at 405 nm. Proteins (10 μg per lane) were separated by 10% SDS-PAGE and detected by (B) Commassie blue staining, and transferred to nitrocellulose membrane and incubated with (C) HRP-streptavidine alone, and (D) biotinylated Pfg (0.1 μg/ml). Lanes 1: molecular weight standards. Lane 2: BSA. Lane 3: hFg. Lane 4: bFg.
FIG. 8: Cloning of Bß human fibrinogen fragments and binding with Pfg. (A) Cloning and expression of recombinant human Bß fibrinogen fragments Fg1, Fg2, Fg3 and Fg4. Fibrinogen fragments were obtained by RT-PCR and expression plasmids were constructed as described in Materials and Methods. (B) GST-fused proteins were expressed in E. coli, fractionated by 12.5% SDS-PAGE, and detected by Coomassie blue staining (B), and incubated with biotinylated Pfg (0.1 μg/ml) as described in Materials and Methods (C).
To characterize the interaction between P. acnes and ligands, we used biotinylated molecules in quantitative and qualitative assays. In a first set of assays, ECM ligands (fibrinogen, collagens I, IV, VI and VIII) were used as labelled proteins with biotin. In a second set of assays, P. acnes surface proteins (total extract and purified Pfg) were biotinylated. For quantitative analysis, unlabeled protein were diluted into 50 mM carbonate-bicarbonate, pH 9.6 buffer to yield a protein concentration ranging from 0.01 to 50 μg/ml, and then immobilized to 96-well polystyrene plates at 4° C. overnight. The wells were rinsed three times with 0.2 ml of PBS containing 0.05% Tween-20 (PBS-Tween). Biotinylated proteins (0.01 to 16 μg/ml in PBS-Tween) were added to the wells and incubated at room temperature for 1 h. The wells were rinsed three times with 0.2 ml of PBS-Tween. Peroxidase conjugated to streptavidin (0.5 μg/ml in PBS-Tween) was added and incubated for 30 min at room temperature. After washing, bound peroxidase was detected using the chromogenic peroxidase substrate ABTS. For qualitative analysis, unlabelled protein (10-75 μg per lane) were separated by SDS-PAGE and then transferred to nitrocellulose membranes (0.45 μm pore size), as described previously (Towbin, 1979). Membranes were then saturated overnight at 4° C. in PBS containing 5% BSA, 0.05% Tween-20 (PBT buffer). Binding activity was detected by incubating the membranes with 20 ml of PBT containing biotinylated proteins (0.1 μg/ml) for 2 h at room temperature followed by three washes with PBT. Bound biotinylated proteins were detected by incubating the membrane with peroxidase conjugated to streptavidin (0.5 μg/ml in PBT) for 1 h at room temperature. After washing, bound peroxidase activity was detected using 3,3′-diaminobenzidine in the presence of CoCl2 and H2O2 (Harlow and Lane, 1988).
Since it was shown that Pfg is recognized by fibrinogen, this ECM ligand was used to analyze the nature of this interaction. First it was analyzed the ability of fibrinogen to be recognized by purified Pfg (FIG. 5). Human and bovine Fg (hFg, bFg) were immobilized to polysterene plate and the binding activity of biotinylated Pfg was measured. […] It has been shown that fibrinogen is a glycoprotein containing both N- and O-linked glycans (Debeire 1985; Reid Townsend 1982; L'Hôte 1996). […] In parallel, deglycosylation was assessed by visualization of a shift in the mobility after electrophoresis separation and Coomassie blue staining (FIG. 6A, lanes 3 and 5) and also by using the RCA-I plant lectin able to recognize ß-linked galactosyl residues in terminal position (FIG. 6C) (Green, 1987). […]

B1: KLESDVSAQMEYCRTPCTVSCNIPVVSGKECEEIIRKGGETSEMYLIQPDSSVKPYRVYCDMNTENGGWTVIQNRQDGSVDFGRKWDPYKQGFGNVATNTDGKNYCGLPGEYWLGNDKISQLTRMGPTELLIEMEDWKGDKVKAHYGGFTVQNE (protein)
chain: KLESDVSAQMEYCRTPCTVSCNIPVVSGKECEEIIRKGGETSEMYLIQPDSSVKPYRVYCDMNTENGGWTVIQNRQDGSVDFGRKWDPYKQGFGNVATNTDGKNYCGLPGEYWLGNDKISQLTRMGPTELLIEMEDWKGDKVKAHYGGFTVQNE
modifications: fragment Fg3
notes: recombinant fragment of Bß sub-unit of human fibrinogen
Take B1: the “Recognition of GST-fused recombinant Bß fibrinogen fragments by biotinylated Pfg” value is listed as “only Fg1 was recognized”.

B2: PTELLIEMEDWKGDKVKAHYGGFTVQNEANKYQISVNKYRGTAGNALMDGASQLMGENRTMTIHNGMFFSTYDRDNDGWLTSDPRKQCSKEDGGGWWYNRCHAANPNGRYYWGGQYTWDMAKHGTDDGVVWMNWKGSWYSMRKMSMKIRPFFPQ (protein)
chain: PTELLIEMEDWKGDKVKAHYGGFTVQNEANKYQISVNKYRGTAGNALMDGASQLMGENRTMTIHNGMFFSTYDRDNDGWLTSDPRKQCSKEDGGGWWYNRCHAANPNGRYYWGGQYTWDMAKHGTDDGVVWMNWKGSWYSMRKMSMKIRPFFPQ
modifications: fragment Fg4
notes: as for B1
For the molecule B2, the “Recognition of GST-fused recombinant Bß fibrinogen fragments by biotinylated Pfg” value is recorded as “only Fg1 was recognized”.

B3: Bß subunit: sub-unit Bß of human fibrinogen, SEQ ID NO: 1 (protein)
chain: MKRMVSWSFHKLKTMKHLLLLLLCVFLVKSQGVNDNEEGFFSARGHRPLDKKREEAPSLRPAPPPISGGGYRARPAKAAATQKKVERKAPDAGGCLHADPDLGVLCPTGCQLQEALLQQERPIRNSVDELNNNVEAVSQTSSSSFQYMYLLKDLWQKRQKQVKDNENVVNEYSSELEKHQLYIDETVNSNIPTNLRVLRSILENLRSKIQKLESDVSAQMEYCRTPCTVSCNIPVVSGKECEEIIRKGGETSEMYLIQPDSSVKPYRVYCDMNTENGGWTVIQNRQDGSVDFGRKWDPYKQGFGNVATNTDGKNYCGLPGEYWLGNDKISQLTRMGPTELLIEMEDWKGDKVKAHYGGFTVQNEANKYQISVNKYRGTAGNALMDGASQLMGENRTMTIHNGMFFSTYDRDNDGWLTSDPRKQCSKEDGGGWWYNRCHAANPNGRYYWGGQYTWDMAKHGTDDGVVWMNWKGSWYSMRKMSMKIRPFFPQQ
modifications: homo sapiens; sub-unit Bbeta of fibrinogen
As for B3, the “Recognition by biotinylated Pfg after electrophoretic separation of fibrinogen” value is listed as “strongly recognized”.

B4: γ subunit: γ chain of fibrinogen (protein, UniProt P02679 27-453, looked up)
Fibrinogen gamma chain: YVATRDNCCILDERFGSYCPTTCGIADFLSTYQTKVDKDLQSLEDILHQVENKTSEVKQLIKAIQLTYNPDESSKPNMIDAATLKSRKMLEEIMKYEASILTHDSSIRYLQEIYNSNNQKIVNLKEKVAQLEAQCQEPCKDTVQIHDITGKDCQDIANKGAKQSGLYFIKPLKANQQFLVYCEIDGSGNGWTVFQKRLDGSVDFKKNWIQYKEGFGHLSPTGTTEFWLGNEKIHLISTQSAIPYALRVELEDWNGRTSTADYAMFKVGPEADKYRLTYAYFAGGDAGDAFDGFDFGDDPSDKFFTSHNGMQFSTWDNDNDKFEGNCAEQDGSGWWMNKCHAGHLNGVYYQGGTYSKASTPNGYDNGIIWATWKTRWYSMKKTTMKIIPFNRLTIGEGQQHHLGGAKQVRPEHPAETEYDSLYPEDDL
On to B4, for which the “Recognition by biotinylated Pfg after electrophoretic separation of fibrinogen” value is on record as “No recognition”.
